Laboratory results from IntAct's records for PubMed 7759517.

B1: Dual specificity mitogen-activated protein kinase kinase 5 (Homo sapiens), Q13163 (parent)
chain: MLWLALGPFPAMENQVLVIRIKIPNSGAVDWTVHSGPQLLFRDVLDVIGQVLPEATTTAFEYEDEDGDRITVRSDEEMKAMLSYYYSTVMEQQVNGQLIEPLQIFPRACKPPGERNIHGLKVNTRAGPSQHSSPAVSDSLPSNSLKKSSAELKKILANGQMNEQDIRYRDTLGHGNGGTVYKAYHVPSGKILAVKVILLDITLELQKQIMSELEILYKCDSSYIIGFYGAFFVENRISICTEFMDGGSLDVYRKMPEHVLGRIAVAVVKGLTYLWSLKILHRDVKPSNMLVNTRGQVKLCDFGVSTQLVNSIAKTYVGTNAYMAPERISGEQYGIHSDVWSLGISFMELALGRFPYPQIQKNQGSLMPLQLLQCIVDEDSPVLPVGEFSEPFVHFITQCMRKQPKERPAPEELMGHPFIVQFNDGNAAVVSMWVCRALEERRSQQGPP

Variants of: B1
Conditions: with mk07_human MAPK7, Q13164
mk07_human MAPK7, Q13164, sequence (Q13164 whole entry, looked up): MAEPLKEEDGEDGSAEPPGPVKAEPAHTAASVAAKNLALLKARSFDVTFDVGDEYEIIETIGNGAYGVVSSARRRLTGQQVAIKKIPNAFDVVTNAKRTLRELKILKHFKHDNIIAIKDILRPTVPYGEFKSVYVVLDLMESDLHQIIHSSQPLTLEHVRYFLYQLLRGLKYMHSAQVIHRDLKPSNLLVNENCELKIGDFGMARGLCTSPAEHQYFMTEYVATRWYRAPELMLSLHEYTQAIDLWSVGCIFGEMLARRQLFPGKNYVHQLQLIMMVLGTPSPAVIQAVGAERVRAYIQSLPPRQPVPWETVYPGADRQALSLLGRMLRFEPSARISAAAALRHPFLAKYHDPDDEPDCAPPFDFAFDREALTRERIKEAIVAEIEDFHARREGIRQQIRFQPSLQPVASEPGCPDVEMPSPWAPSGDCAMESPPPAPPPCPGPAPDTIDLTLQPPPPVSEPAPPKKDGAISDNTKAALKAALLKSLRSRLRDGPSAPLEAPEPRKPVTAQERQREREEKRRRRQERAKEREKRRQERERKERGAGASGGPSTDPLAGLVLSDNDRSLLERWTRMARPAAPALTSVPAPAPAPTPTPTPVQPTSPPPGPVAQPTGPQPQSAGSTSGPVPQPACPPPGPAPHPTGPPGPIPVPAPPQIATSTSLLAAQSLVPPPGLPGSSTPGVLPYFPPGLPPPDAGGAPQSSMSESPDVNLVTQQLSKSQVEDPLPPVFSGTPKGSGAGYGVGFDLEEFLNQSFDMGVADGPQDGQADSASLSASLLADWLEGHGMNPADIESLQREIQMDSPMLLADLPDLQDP
For K195M, the “effect of a mutation on the interaction” value was “increasing interaction”.

Variants of: B1
Conditions: with mk07_human MAPK7, Q13164
Remark: another data set of the same source
For S311A;T315A, the “effect of a mutation on the interaction” value was “increasing interaction”.
